Drawing on the RNAGym collection of RNA variant scans (doi:10.7554/elife.80360), this text covers self-cleavage for 39 variants.

Sequences and labels used below:
B1: CPEB3 Ribozyme (parent)
chain: GGGGGCCACAGCAGAAGCGUUCACGUCGCGGCCCCUGUCAGAUUCUGGUGAAUCUGCGAAUUCUGCUGU

The data set covers variants of B1. The experiment in a line: self-cleavage, relative activity (ratio to wild type); higher = more cleavage; co-transcriptional.
In the case of GGGGGCCACGGCAGAAGCGUUCACGUCGCGGCCCCUGUCAGAUUCUGGUGAAUCUGCGAAUUCCGCUGU [A10G U64C], the self-cleavage came out at 0.406.
As for GGGGGCCACGGCAGAAGCGUUCACGUCGCGGCCCCUGUCAGAUUCUGGUGAAUCUGCGAAUUCAGCUGU [A10G U64A], the self-cleavage was determined as 0.33.
In the case of GGGGGCCACGGCAGAAGCGUUCACGUCGCGGCCCCGGUCAGAUUCUGGUGAAUCUGCGAAUUCUGCUGU [A10G U36G], the self-cleavage came out at 0.155.
The value for GGGGGCCACGGCAGAAGCGUUCACGUCGCGGCCCCUGUCAGAUUCUGGUGAAGCUGCGAAUUCUGCUGU [A10G U53G] was 0.646; that for GGGGGCCACUGCAGAAGCGUUCACGUCGCGGCCCCUGUCAGAUUCUGGUGCAUCUGCGAAUUCUGCUGU [A10U A51C] was 0.962.
In the case of GGGGGCCACUGCAGGAGCGUUCACGUCGCGGCCCCUGUCAGAUUCUGGUGAAUCUGCGAAUUCUGCUGU [A10U A15G], the self-cleavage was found to be 0.999.
With GGGGGCCACUGCAGUAGCGUUCACGUCGCGGCCCCUGUCAGAUUCUGGUGAAUCUGCGAAUUCUGCUGU [A10U A15U], the self-cleavage was found to be 0.772.
For GGGGGCCACGGCAGAAGCGUUCACGUCGCGGCCCCUGUCAGAUUCUGGUGAAUCUGCGAAUGCUGCUGU [A10G U62G], the self-cleavage was determined as 0.448.
For GGGGGCCACGGCAGAAGCGUUCACGUCGCGGCCCCUGUCAGAUUCUGGUGAAUCUGCGAAUACUGCUGU [A10G U62A], the self-cleavage is 0.578.
For GGGGGCCACGGCAGAAGCGUUCACGUCGCGGCCCCUGUCAGAUUCUGGUGAAUCUGCGAAUUCUGCUGC [A10G U69C], the self-cleavage came to 1.06.
For the variant GGGGGCCACGGCAGAAGCGUUCACGUCGCGGCCCCUGUCAGAUUCUGGUGAAUCUGCGAAUUCUGCUGG [A10G U69G], the self-cleavage worked out at 0.978.
Regarding GGGGGCCACGGCAGAAGCGUUCACGUCGCGGCCCCUGUCAGAUUCUGGUGAAUCUGCGAAUUCUGCUGA [A10G U69A], the self-cleavage was determined as 0.981.
In the case of GGGGGCCACUGCAGAAGCGUUCACGUCGCGGCCCCUGUCAGAUUCUGGUGACUCUGCGAAUUCUGCUGU [A10U A52C] it was 1; in that of GGGGGCCACGGCAGAAGCGUUCACGUCGCGGCCCCUGUCAGAUUCUGGUGAAUCUGCGAACUCUGCUGU [A10G U61C], 0.291; in that of GGGGGCCACGGCAGAAGCGUUCACGUCGCGGCCCCUGUCAGAUUCUGGUGAAUCUGCGAAGUCUGCUGU [A10G U61G], 0.468.
The value for GGGGGCCACUGCAGAAGCGUUCACGUCGCGGCCCCUGUCAGAUUCUGGUGAAUCUGCGAAUUCUGCUGU [A10U] was 1.
Turning to GGGGGCCACUGCAGAAGCGUUCGCGUCGCGGCCCCUGUCAGAUUCUGGUGAAUCUGCGAAUUCUGCUGU [A10U A23G], the self-cleavage is 0.983.
Regarding GGGGGCCACUGCAGAAGCGUUCCCGUCGCGGCCCCUGUCAGAUUCUGGUGAAUCUGCGAAUUCUGCUGU [A10U A23C], the self-cleavage was 0.968.
In the case of GGGGGCCACUGCAGAAGCGUUCUCGUCGCGGCCCCUGUCAGAUUCUGGUGAAUCUGCGAAUUCUGCUGU [A10U A23U] it was 1.
Consider GGGGGCCACUGCAGAAGCGUUCACGUCGCGGCCCCUGUCCGAUUCUGGUGAAUCUGCGAAUUCUGCUGU [A10U A40C], for which the self-cleavage came out at 0.516.
Consider GGGGGCCACUGCAGAAGCGUUCACGUCGCGGCCCCUGUCUGAUUCUGGUGAAUCUGCGAAUUCUGCUGU [A10U A40U], for which the self-cleavage was 0.911.
In the case of GGGGGCCACGGCAGAAGCGUUCACGUCGCGGCCCCUGUCAGAUUCUGGUGAAUCAGCGAAUUCUGCUGU [A10G U55A] it was 0.407.
In the case of GGGGGCCACGGCAGAAGCGUUCACGUCGCGGCCCCUGUCAGAUUCUGGUGAAUCCGCGAAUUCUGCUGU [A10G U55C] it was 0.407; in that of GGGGGCCACGGCAGAAGCGUUCACGUCGCGGCCCCUGUCAGAUUCUGGUGAAUCUGCGAAUUCUGCGGU [A10G U67G], 0.757; in that of GGGGGCCACGGCAGAAGCGUUCACGUCGCGGCCCCUGUCAGAUUCUGGUGAAUCUGCGAAUUCUGCAGU [A10G U67A], 0.847.
In the case of GGGGGCCACGGCAGAAGCGUUCACGUCGCGGCCCCUGUCAGAUUCUGGGGAAUCUGCGAAUUCUGCUGU [A10G U49G], the self-cleavage is 0.907.
Consider GGGGGCCACGGCAGAAGCGUUCACGUCGCGGCCCCUGUCAGAUUCUGGAGAAUCUGCGAAUUCUGCUGU [A10G U49A], for which the self-cleavage turned out to be 0.932.
For GGGGGCCACGGCAGAAGCGUUCACGUCGCGGCCCCUGUCAGAUUCUGGCGAAUCUGCGAAUUCUGCUGU [A10G U49C], the self-cleavage was 0.99.
With GGGGGCCACGGCAGAAGCGUUCACGUCGCGGCCCCUGUCAGAUACUGGUGAAUCUGCGAAUUCUGCUGU [A10G U44A], the self-cleavage was determined as 0.702.
In the case of GGGGGCCACGGCAGAAGCGUUCACGUCGCGGCCCCUGUCAGAUCCUGGUGAAUCUGCGAAUUCUGCUGU [A10G U44C], the self-cleavage worked out at 0.498.
On to GGGGGCCACUGCAGAAGCGUUCACGUCGCGGCCCCUGUCAGGUUCUGGUGAAUCUGCGAAUUCUGCUGU [A10U A42G], for which the self-cleavage amounted to 0.899.
Consider GGGGGCCACUGCAGAAGCGUUCACGUCGCGGCCCCUGUCAGUUUCUGGUGAAUCUGCGAAUUCUGCUGU [A10U A42U], for which the self-cleavage turned out to be 0.999.
With GGGGGCCACUGCCGAAGCGUUCACGUCGCGGCCCCUGUCAGAUUCUGGUGAAUCUGCGAAUUCUGCUGU [A10U A13C], the self-cleavage is 0.808.
In the case of GGGGGCCACGGCAGAAGCGUUCACGUCGCGGCCCCUGUCAGAUUCGGGUGAAUCUGCGAAUUCUGCUGU [A10G U46G] it was 0.901.
As for GGGGGCCACGGCAGAAGCGUUCACGUCGCGGCCCCUGUCAGAUUCCGGUGAAUCUGCGAAUUCUGCUGU [A10G U46C], the self-cleavage turned out to be 0.907.
As for GGGGGCCACGGCAGAAGCGUUCACGUCGCGGCCCCUGUCAGAGUCUGGUGAAUCUGCGAAUUCUGCUGU [A10G U43G], the self-cleavage was 0.344.
Regarding GGGGGCCACGGCAGAAGCGUUCACGUCGCGGCCCCUGUCAGAAUCUGGUGAAUCUGCGAAUUCUGCUGU [A10G U43A], the self-cleavage stood at 0.455.
For GGGGGCCACGGCAGAAGCGUUCACGUCGCGGCCCCUGUCAGACUCUGGUGAAUCUGCGAAUUCUGCUGU [A10G U43C], the self-cleavage stood at 0.651.
As to GGGGGCCACUGCAGACGCGUUCACGUCGCGGCCCCUGUCAGAUUCUGGUGAAUCUGCGAAUUCUGCUGU [A10U A16C], the self-cleavage worked out at 0.281.
